Source: US20170241986A1, “METHODS FOR IDENTIFYING COMPOUNDS THAT ALTER THE ACTIVITY OF IRHOM POLYPEPTIDES AND USE THEREOF” (The Jackson Laboratory, priority 2014, published 2017)

T1: HA-tagged human AREG (amphiregulin) (human) (UniProt P15514)
T1 sequence (looked up): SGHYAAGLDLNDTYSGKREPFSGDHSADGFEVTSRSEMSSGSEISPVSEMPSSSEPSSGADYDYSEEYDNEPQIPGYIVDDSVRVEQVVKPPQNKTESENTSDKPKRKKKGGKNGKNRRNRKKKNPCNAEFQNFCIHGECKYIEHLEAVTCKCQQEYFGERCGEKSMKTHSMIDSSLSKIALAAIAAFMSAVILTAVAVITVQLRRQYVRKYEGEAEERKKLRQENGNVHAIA

B1: p.I186T: HuWt clone containing the human tylosis missense mutation RHBDF2 p.I186T (protein)
chain: MASADKNGGSVSSVSSSRLQSRKPPNLSITIPPPEKETQAPGEQDSMLPEGFQNRRLKKSQPRTWAAHTTACPPSFLPKRKNPAYLKSVSLQEPRSRWQESSEKRPGFRRQASLSQSIRKGAAQWFGVSGDWEGQRQQWQRRSLHHCSMRYGRLKASCQRDLELPSQEAPSFQGTESPKPCKMPKTVDPLARGRAFRHPEEMDRPHAPHPPLTPGVLSLTSFTSVRSGYSHLPRRKRMSVAHMSLQAAAALLKGRSVLDATGQRCRVVKRSFAFPSFLEEDVVDGADTFDSSFFSKEEMSSMPDDVFESPPLSASYFRGIPHSASPVSPDGVQIPLKEYGRAPVPGPRRGKRIASKVKHFAFDRKKRHYGLGVVGNWLNRSYRRSISSTVQRQLESFDSHRPYFTYWLTFVHVIITLLVICTYGIAPVGFAQHVTTQLVLRNKGVYESVKYIQQENFWVGPSSIDLIHLGAKFSPCIRKDGQIEQLVLRERDLERDSGCCVQNDHSGCIQTQRKDCSETLATFVKWQDDTGPPMDKSDLGQKRTSGAVCHQDPRTCEEPASSGAHIWPDDITKWPICTEQARSNHTGFLHMDCEIKGRPCCIGTKGSCEITTREYCEFMHGYFHEEATLCSQVHCLDKVCGLLPFLNPEVPDQFYRLWLSLFLHAGVVHCLVSVVFQMTILRDLEKLAGWHRIAIIFILSGITGNLASAIFLPYRAEVGPAGSQFGLLACLFVELFQSWPLLERPWKAFLNLSAIVLFLFICGLLPWIDNIAHIFGFLSGLLLAFAFLPYITFGTSDKYRKRALILVSLLAFAGLFAALVLWLYIYPINWPWIEHLTCFPFTSRFCEKYELDQVLH
modifications: left off: small tags and cut ends
B2: Flag-tagged HuCub (human version of cub cDNA; N-terminal-truncated human iRhom2) (enzyme, not shown: small tags and cut ends)
chain: MSSMPDDVFESPPLSASYFRGIPHSASPVSPDGVQIPLKEYGRAPVPGPRRGKRIASKVKHFAFDRKKRHYGLGVVGNWLNRSYRRSISSTVQRQLESFDSHRPYFTYWLTFVHVIITLLVICTYGIAPVGFAQHVTTQLVLRNKGVYESVKYIQQENFWVGPSSIDLIHLGAKFSPCIRKDGQIEQLVLRERDLERDSGCCVQNDHSGCIQTQRKDCSETLATFVKWQDDTGPPMDKSDLGQKRTSGAVCHQDPRTCEEPASSGAHIWPDDITKWPICTEQARSNHTGFLHMDCEIKGRPCCIGTKGSCEITTREYCEFMHGYFHEEATLCSQVHCLDKVCGLLPFLNPEVPDQFYRLWLSLFLHAGVVHCLVSVVFQMTILRDLEKLAGWHRIAIIFILSGITGNLASAIFLPYRAEVGPAGSQFGLLACLFVELFQSWPLLERPWKAFLNLSAIVLFLFICGLLPWIDNIAHIFGFLSGLLLAFAFLPYITFGTSDKYRKRALILVSLLAFAGLFAALVLWLYIYPINWPWIEHLTCFPFTSRFCEKYELDQVLH
B3: HuCub: human RHBDF2 construct mimicking the mutant Rhbdf2cub transcript; N-terminal-truncated iRhom2 (protein)
chain: B2 chain
modifications: left off: small tags and cut ends
notes: human RHBDF2 construct mimicking the mutant Rhbdf2cub transcript; N-terminal-truncated iRhom2

Key:
AREG [1] = assay: Co-immunoprecipitation of iRhom2-AREG complex; type: binding, human; conditions: COS7 cell lysates, anti-Flag immunoprecipitation
Procedure: Immunoprecipitation: 293T and COS7 cell transfections were carried according to the manufacturer's instructions (Life technologies). Cells plated in 6 well plates were treated with 400 μls of Cell Lysis Buffer (Cell Signaling, Danvers, Mass.) containing complete mini protease inhibitors (Roche Applied Science, Indianapolis, Ind.), incubated on ice for 10 min and centrifuged at 14,000 g for 10 min in a cold room. Cell supernatant was incubated overnight with 20 μls of magnetic beads conjugated with Anti-DDK antibody (Origene) in a cold room on a rocking platform. Following overnight incubation, beads/slurry was washed with three times with TBS-T, and protein was collected using 2×SDS-PAGE loading buffer.

AREG [2] = assay: Immunoblot of intracellular pro-AREG in co-transfected cells; type: cell-based, human; conditions: co-expression with AREG, DMSO or 10 μM MM
Procedure: SDS-PAGE and Immunoblotting: Cells were washed once with ice cold PBS and incubated with RIPA buffer (Cell Signaling, Danvers, Mass.) containing complete mini protease inhibitors (Roche Applied Science, Indianapolis, Ind.) on ice for 10 min. Cell lysate was centrifuged at 14,000 g for 10 min at 4° C. Supernatant was collected and stored at −80° C. until further use. Total amount of protein was quantified using a Qubit Fluorometer (Life technologies), and 10 μg of protein was loaded onto 4-12% pre-cast gels (Lonza, Allendale, N.J.) and run at 140V until the low molecular weight Precision plus protein standard (Bio-Rad) reached the bottom of the gel. Resolved proteins were electrophoretically transferred onto PVDF membranes using an iBLOT (Life technologies) before blocking in 5% BSA (Cell Signaling Technology) in TBST (20 mM Tris, 137 mM sodium chloride, and 0.1% Tween-20) for 1 h at room temperature. Membranes were then incubated overnight at 4° C. in primary antibodies (1:1000) followed by three 15 min washes in TBST and incubation in secondary antibodies (1:2000) for 1 h at room temperature. After another wash in TBST for 90 min, membranes were exposed to SuperSignal West Femto Substrate (Fisher Scientific) for 5 min for detection of horseradish peroxidase generated signal. Membranes were re-probed with actin-specific antibody. […]

AREG [3] = assay: ELISA of AREG in conditioned medium of transfected 293T cells (in vitro cleavage assay); type: cell-based, human
Excerpt: To test whether Rhbdf2^cub, with its short N-terminal domain, could induce secretion of AREG independently of metalloprotease activity, we performed in vitro cleavage assays in the presence or absence of marimastat (MM), a potent broad-spectrum metalloprotease inhibitor that can block both ADAM17- and ADAM10-dependent shedding of substrates. Because of the significant homology between the mouse and human RHBDF2 genes we transfected 293T cells with human AREG either alone or with the human wildtype (HuWt) or human Cub (HuCub) RHBDF2 genes (FIG. 5A), and measured AREG levels in conditioned medium. In the absence of MM, we observed no difference in AREG levels between AREG-expressing and AREG/HuCub co-expressing cells, whereas co-expression of HuWt and AREG reduced AREG levels by ˜60% (FIG. 5B).
(§1) Human AREG, HB-EGF and EGF ELISA: Transient transfections were performed in 293T cells seeded in 24-well plates. Using lipofectamine LTX with Plus reagent 16.5 fmol of HuWt or HuCub was co-transfected with 25 ng of AREG or 50 ng of HB-EGF or 200 ng of EGF. The total amount of transfected DNA was made up to equal amount per well with pCMV6-AC-HA vector. After 24 h, DMSO or 10 μM MM in 1 ml of fresh medium replaced the old medium. After 24 h, 100 μl of supernatant was either undiluted (HB-EGF and EGF) or diluted five-fold (AREG) and subjected to ELISA as per the manufacturer's instructions (DY262, DY259, and DY236).

[4] = biological target: T1, HA-tagged human AREG (amphiregulin) (human); assay: cell-based or functional assay
EGF = assay: ELISA of EGF in conditioned medium of transfected 293T cells; type: cell-based, human; conditions: 10 μM marimastat
Procedure: as §1

HB-EGF = assay: ELISA of HB-EGF in conditioned medium of transfected 293T cells; type: cell-based, human; conditions: 10 μM marimastat
Procedure: as §1

[5] = co-expression with AREG, 10 μM marimastat

| AREG levels after co-transfection [4] | AREG levels in conditioned medium (ELISA) of co-transfected 293T cells in the presence of marimastat [4] | Molecule | physical complex with AREG (AREG [1]) | intracellular levels of AREG compared with HuWt (AREG [2]) | levels of AREG in conditioned medium compared with HuWt (AREG [3]; [5]) | secretion of EGF compared with empty vector transfected controls (EGF) | secretion of AREG compared with empty vector transfected controls (AREG [3]; 293T cells, 10 μM marimastat) | AREG levels versus AREG-expressing cells (AREG [3]; 293T cells, co-expression with AREG, absence of MM) | secretion of HB-EGF compared with empty vector transfected controls (HB-EGF) |
| --- | --- | --- | --- | --- | --- | --- | --- | --- | --- |
| – | – | B1 | forms physical complexes with AREG | lower intracellular levels | greater levels of AREG in conditioned medium | – | – | – | – |
| 2 to 3 fold | 2 fold | B2 | – | – | – | – | – | – | – |
| – | – | B3 | forms physical complexes with AREG | lower intracellular levels | greater levels of AREG in conditioned medium | not EGF | selectively increased secretion of AREG | no difference | selectively increased secretion of AREG and HB-EGF |
